Source: PMC6367351 (Nature Communications, 2019)
Where no end group is shown, it is not given here.

T1: Methanocaldococcus infernus Elp3, full length (Methanocaldococcus infernus, UniProt D5VRB9 1-534)
T1 chain: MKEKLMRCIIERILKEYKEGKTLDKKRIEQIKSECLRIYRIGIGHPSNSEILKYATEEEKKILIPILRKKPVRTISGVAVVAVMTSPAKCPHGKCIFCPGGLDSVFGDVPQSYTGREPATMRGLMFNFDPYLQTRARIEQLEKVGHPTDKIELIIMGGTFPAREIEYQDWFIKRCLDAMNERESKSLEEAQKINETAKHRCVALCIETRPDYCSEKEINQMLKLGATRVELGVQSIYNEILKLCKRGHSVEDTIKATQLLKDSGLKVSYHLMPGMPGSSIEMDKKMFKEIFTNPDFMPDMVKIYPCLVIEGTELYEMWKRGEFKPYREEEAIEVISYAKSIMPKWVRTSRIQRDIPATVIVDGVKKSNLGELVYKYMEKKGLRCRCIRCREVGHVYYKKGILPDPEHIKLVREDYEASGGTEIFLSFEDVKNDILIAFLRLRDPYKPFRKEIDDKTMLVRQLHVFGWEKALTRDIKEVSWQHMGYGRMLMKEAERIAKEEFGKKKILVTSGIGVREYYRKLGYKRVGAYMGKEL

T2: MinElp3 (Methanocaldococcus infernus, UniProt D5VRB9 1-534)
T2 sequence: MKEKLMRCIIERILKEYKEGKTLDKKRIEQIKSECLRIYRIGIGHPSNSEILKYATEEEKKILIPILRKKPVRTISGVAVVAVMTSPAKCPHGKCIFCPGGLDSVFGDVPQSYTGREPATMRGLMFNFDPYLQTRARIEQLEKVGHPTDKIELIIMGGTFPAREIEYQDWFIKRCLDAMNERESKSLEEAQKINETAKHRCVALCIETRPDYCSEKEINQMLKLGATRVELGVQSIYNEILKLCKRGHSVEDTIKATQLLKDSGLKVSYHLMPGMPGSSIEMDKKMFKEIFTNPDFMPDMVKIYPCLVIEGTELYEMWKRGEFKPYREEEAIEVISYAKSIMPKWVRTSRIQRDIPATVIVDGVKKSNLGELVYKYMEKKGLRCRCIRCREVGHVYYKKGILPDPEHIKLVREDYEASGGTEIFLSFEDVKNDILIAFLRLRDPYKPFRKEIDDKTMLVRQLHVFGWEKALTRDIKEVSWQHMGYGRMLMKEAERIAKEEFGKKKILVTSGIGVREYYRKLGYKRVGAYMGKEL


Experiments:
[1] = target: T1, Methanocaldococcus infernus Elp3, full …; assay: ITC
[2] = target: the molecule itself; assay: SEC; S200 gel filtration, 20 mM HEPES pH 7.5, 150 mM NaCl, 5 mM DTT; aerobic purification; masses of the monomeric forms confirmed by SDS-PAGE and light scattering (RALS and LALS)
MinElp3 = target: T2, MinElp3; assay: EMSA; EMSA: 25 C 30 min, 6% native PAGE at 4 C; tRNA stored in 20 mM HEPES pH 7.5, 150 mM NaCl, 5 mM DTT, 1 mM MgCl2; MST buffer not given in material; details: protein: recombinant; tags: GST tag cleaved (TEV); label: Cy5; hairpin

Row | Binder | binding result [2] | also measured
1 | YMPSDKTIGG-NH2 (not fully specified (N-terminus)) [alpha-tubulin peptide Tubulin(36–44) with an added N-terminal tyrosine] |  | Kd [1]: > 500 µM
2 | MinElp3 Δ1–19 (domain or fragment, Methanocaldococcus infernus, UniProt D5VRB9 20-534, looked up, Elp3 of Methanocaldococcus infernus without residues 1-19; Truncations were cloned into pETM30 or pETM11; The general purification goes by a GST tag that is cleaved; source: E. coli BL21 (DE3) CodonPlus-RIL, purified (GSTPrep, heparin, SEC)) GKTLDKKRIEQIKSECLRIYRIGIGHPSNSEILKYATEEEKKILIPILRKKPVRTISGVAVVAVMTSPAKCPHGKCIFCPGGLDSVFGDVPQSYTGREPATMRGLMFNFDPYLQTRARIEQLEKVGHPTDKIELIIMGGTFPAREIEYQDWFIKRCLDAMNERESKSLEEAQKINETAKHRCVALCIETRPDYCSEKEINQMLKLGATRVELGVQSIYNEILKLCKRGHSVEDTIKATQLLKDSGLKVSYHLMPGMPGSSIEMDKKMFKEIFTNPDFMPDMVKIYPCLVIEGTELYEMWKRGEFKPYREEEAIEVISYAKSIMPKWVRTSRIQRDIPATVIVDGVKKSNLGELVYKYMEKKGLRCRCIRCREVGHVYYKKGILPDPEHIKLVREDYEASGGTEIFLSFEDVKNDILIAFLRLRDPYKPFRKEIDDKTMLVRQLHVFGWEKALTRDIKEVSWQHMGYGRMLMKEAERIAKEEFGKKKILVTSGIGVREYYRKLGYKRVGAYMGKEL | binds | 
3 | MinElp3 Δ1–41 (domain or fragment, Methanocaldococcus infernus, UniProt D5VRB9 42-534, looked up, Elp3 of Methanocaldococcus infernus without residues 1-41; Truncations were cloned into pETM30 or pETM11; source: E. coli BL21 (DE3) CodonPlus-RIL, purified (GSTPrep, heparin, SEC)) GIGHPSNSEILKYATEEEKKILIPILRKKPVRTISGVAVVAVMTSPAKCPHGKCIFCPGGLDSVFGDVPQSYTGREPATMRGLMFNFDPYLQTRARIEQLEKVGHPTDKIELIIMGGTFPAREIEYQDWFIKRCLDAMNERESKSLEEAQKINETAKHRCVALCIETRPDYCSEKEINQMLKLGATRVELGVQSIYNEILKLCKRGHSVEDTIKATQLLKDSGLKVSYHLMPGMPGSSIEMDKKMFKEIFTNPDFMPDMVKIYPCLVIEGTELYEMWKRGEFKPYREEEAIEVISYAKSIMPKWVRTSRIQRDIPATVIVDGVKKSNLGELVYKYMEKKGLRCRCIRCREVGHVYYKKGILPDPEHIKLVREDYEASGGTEIFLSFEDVKNDILIAFLRLRDPYKPFRKEIDDKTMLVRQLHVFGWEKALTRDIKEVSWQHMGYGRMLMKEAERIAKEEFGKKKILVTSGIGVREYYRKLGYKRVGAYMGKEL | binds | 
4 | MinElp3 Δ1–46 (domain or fragment, Methanocaldococcus infernus, UniProt D5VRB9 47-534, looked up, Elp3 of Methanocaldococcus infernus without residues 1-46; Truncations were cloned into pETM30 or pETM11; source: E. coli BL21 (DE3) CodonPlus-RIL, purified (GSTPrep, heparin, SEC)) SNSEILKYATEEEKKILIPILRKKPVRTISGVAVVAVMTSPAKCPHGKCIFCPGGLDSVFGDVPQSYTGREPATMRGLMFNFDPYLQTRARIEQLEKVGHPTDKIELIIMGGTFPAREIEYQDWFIKRCLDAMNERESKSLEEAQKINETAKHRCVALCIETRPDYCSEKEINQMLKLGATRVELGVQSIYNEILKLCKRGHSVEDTIKATQLLKDSGLKVSYHLMPGMPGSSIEMDKKMFKEIFTNPDFMPDMVKIYPCLVIEGTELYEMWKRGEFKPYREEEAIEVISYAKSIMPKWVRTSRIQRDIPATVIVDGVKKSNLGELVYKYMEKKGLRCRCIRCREVGHVYYKKGILPDPEHIKLVREDYEASGGTEIFLSFEDVKNDILIAFLRLRDPYKPFRKEIDDKTMLVRQLHVFGWEKALTRDIKEVSWQHMGYGRMLMKEAERIAKEEFGKKKILVTSGIGVREYYRKLGYKRVGAYMGKEL | binds | 
5 | MinElp3 Δ1–54 (domain or fragment, Methanocaldococcus infernus, UniProt D5VRB9 55-534, looked up, Elp3 of Methanocaldococcus infernus without residues 1-54; Truncations were cloned into pETM30 or pETM11; source: E. coli BL21 (DE3) CodonPlus-RIL, purified (GSTPrep, heparin, SEC)) ATEEEKKILIPILRKKPVRTISGVAVVAVMTSPAKCPHGKCIFCPGGLDSVFGDVPQSYTGREPATMRGLMFNFDPYLQTRARIEQLEKVGHPTDKIELIIMGGTFPAREIEYQDWFIKRCLDAMNERESKSLEEAQKINETAKHRCVALCIETRPDYCSEKEINQMLKLGATRVELGVQSIYNEILKLCKRGHSVEDTIKATQLLKDSGLKVSYHLMPGMPGSSIEMDKKMFKEIFTNPDFMPDMVKIYPCLVIEGTELYEMWKRGEFKPYREEEAIEVISYAKSIMPKWVRTSRIQRDIPATVIVDGVKKSNLGELVYKYMEKKGLRCRCIRCREVGHVYYKKGILPDPEHIKLVREDYEASGGTEIFLSFEDVKNDILIAFLRLRDPYKPFRKEIDDKTMLVRQLHVFGWEKALTRDIKEVSWQHMGYGRMLMKEAERIAKEEFGKKKILVTSGIGVREYYRKLGYKRVGAYMGKEL | binds | 
6 | MinElp3 Δ1–68 (domain or fragment, Methanocaldococcus infernus, UniProt D5VRB9 69-534, looked up, Elp3 of Methanocaldococcus infernus without residues 1-68; Truncations were cloned into pETM30 or pETM11; source: E. coli BL21 (DE3) CodonPlus-RIL, purified (GSTPrep, heparin, SEC)) KKPVRTISGVAVVAVMTSPAKCPHGKCIFCPGGLDSVFGDVPQSYTGREPATMRGLMFNFDPYLQTRARIEQLEKVGHPTDKIELIIMGGTFPAREIEYQDWFIKRCLDAMNERESKSLEEAQKINETAKHRCVALCIETRPDYCSEKEINQMLKLGATRVELGVQSIYNEILKLCKRGHSVEDTIKATQLLKDSGLKVSYHLMPGMPGSSIEMDKKMFKEIFTNPDFMPDMVKIYPCLVIEGTELYEMWKRGEFKPYREEEAIEVISYAKSIMPKWVRTSRIQRDIPATVIVDGVKKSNLGELVYKYMEKKGLRCRCIRCREVGHVYYKKGILPDPEHIKLVREDYEASGGTEIFLSFEDVKNDILIAFLRLRDPYKPFRKEIDDKTMLVRQLHVFGWEKALTRDIKEVSWQHMGYGRMLMKEAERIAKEEFGKKKILVTSGIGVREYYRKLGYKRVGAYMGKEL | binds | 
7 | GACAGACUUGAAAUCUGUU (structured_RNA) [ASL yeast tRNASerUGA] |  | binding result (MinElp3): binds
